Experimental findings from PMC8575462, “PP2A/B55α substrate recruitment as defined by the retinoblastoma-related protein p107” (eLife, 2021) are described below.

B1: GST-p107 R1R2 [not stated] / B55α (PP2A regulatory subunit B55α), endogenous in U-2 OS cells [human (endogenous in U-2 OS)] (parent complex)
chain 1: KVPTCEEVIFPNNFETGNGGNVQGHLPLMPMSPLMHPRVKEVRTDSGSLRRDMQPLSPISVHERYSSPTAGSAKRRLF
chain 2: MAGAGGGNDIQWCFSQVKGAVDDDVAEADIISTVEFNHSGELLATGDKGGRVVIFQQEQENKIQSHSRGEYNVYSTFQSHEPEFDYLKSLEIEEKINKIRWLPQKNAAQFLLSTNDKTIKLWKISERDKRPEGYNLKEEDGRYRDPTTVTTLRVPVFRPMDLMVEASPRRIFANAHTYHINSISINSDYETYLSADDLRINLWHLEITDRSFNIVDIKPANMEELTEVITAAEFHPNSCNTFVYSSSKGTIRLCDMRASALCDRHSKLFEEPEDPSNRSFFSEIISSISDVKFSHSGRYMMTRDYLSVKIWDLNMENRPVETYQVHEYLRSKLCSLYENDCIFDKFECCWNGSDSVVMTGSYNNFFRMFDRNTKRDITLEASRENNKPRTVLKPRKVCASGKRKKDEISVDSLDFNKKILHTAWHPKENIIAVATTNNLYIFQDKVN
B2: Myc-B55α wild type [not stated] / Flag-pRB [not stated] (parent complex)
chain 1: B1 chain 2
chain 2: MPPKTPRKTAATAAAAAAEPPAPPPPPPPEEDPEQDSGPEDLPLVRLEFEETEEPDFTALCQKLKIPDHVRERAWLTWEKVSSVDGVLGGYIQKKKELWGICIFIAAVDLDEMSFTFTELQKNIEISVHKFFNLLKEIDTSTKVDNAMSRLLKKYDVLFALFSKLERTCELIYLTQPSSSISTEINSALVLKVSWITFLLAKGEVLQMEDDLVISFQLMLCVLDYFIKLSPPMLLKEPYKTAVIPINGSPRTPRRGQNRSARIAKQLENDTRIIEVLCKEHECNIDEVKNVYFKNFIPFMNSLGLVTSNGLPEVENLSKRYEEIYLKNKDLDARLFLDHDKTLQTDSIDSFETQRTPRKSNLDEEVNVIPPHTPVRTVMNTIQQLMMILNSASDQPSENLISYFNNCTVNPKESILKRVKDIGYIFKEKFAKAVGQGCVEIGSQRYKLGVRLYYRVMESMLKSEEERLSIQNFSKLLNDNIFHMSLLACALEVVMATYSRSTSQNLDSGTDLSFPWILNVLNLKAFDFYKVIESFIKAEGNLTREMIKHLERCEHRIMESLAWLSDSPLFDLIKQSKDREGPTDHLESACPLNLPLQNNHTAADMYLSPVRSPKKKGSTTRVNSTANAETQATSAFQTQKPLKSTSLSLFYKKVYRLAYLRLNTLCERLLSEHPELEHIIWTLFQHTLQNEYELMRDRHLDQIMMCSMYGICKVKNIDLKFKIIVTAYKDLPHAVQETFKRVLIKEEEYDSIIVFYNSVFMQRLKTNILQYASTRPPTLSPIPHIPRSPYKFPSSPLRIPGGNIYISPLKSPYKISEGLPTPTKMTPRSRILVSIGESFGTSEKFQKINQMVCNSDRVLKRSAEGSNPPKPLKKLRFDIEGSDEADGSKHLPGESKFQQKLAEMTSTRTRMQKQKMNDSMDTSNKEEK

Variants of B1 are the subject of the first assay. Description: GST pull-down, western blot; U2-OS lysates; triplicate; read off a plot. For orientation: Immunoblotting shows a protein as a band on a membrane.
Take chain 1 KVPTCEEVIFPNNFETGNGGNVQGHLPLMPMSPLMHPRVKEVRTDSGSLAADMQPLSPISVHERYSSPTAGSAKRRLF: the ratio to parent is around 1.

Consider chain 1 KVPTCEEVIFPNNFETGNGGNVQGHLPLMPMSPLMHPAVAEVRTDSGSLRRDMQPLSPISVHERYSSPTAGSAKRRLF, for which the ratio to parent is around 0.05.

With chain 1 KVPTCEEVIFPNNFETGNGGNVQGHLPLMPMSPLMHPRVKEVATDSGSLRRDMQPLSPISVHERYSSPTAGSAKRRLF, the ratio to parent was around 0.47.

The variants in the next assay derive from B2. The assay is described as follows: co-immunoprecipitation (anti-Myc IP), western blot quantitation; 293T cells, co-transfected; read off a plot.
Consider chain 1 MAGAGGGNDIQWCFSQVKGAVDDDVAEADIISTVEFNHSGELLATGDEGGRVVIFQQEQENKIQSHSRGEYNVYSTFQSHEPEFDYLKSLEIEEKINKIRWLPQKNAAQFLLSTNDKTIKLWKISERDKRPEGYNLKEEDGRYRDPTTVTTLRVPVFRPMDLMVEASPRRIFANAHTYHINSISINSDYETYLSADDLRINLWHLEITDRSFNIVDIKPANMEELTEVITAAEFHPNSCNTFVYSSSKGTIRLCDMRASALCDRHSKLFEEPEDPSNRSFFSEIISSISDVKFSHSGRYMMTRDYLSVKIWDLNMENRPVETYQVHEYLRSKLCSLYENDCIFDKFECCWNGSDSVVMTGSYNNFFRMFDRNTKRDITLEASRENNKPRTVLKPRKVCASGKRKKDEISVDSLDFNKKILHTAWHPKENIIAVATTNNLYIFQDKVN [chain 1 K48E], for which the ratio to parent was around 0.95.

In the case of chain 1 MAGAGGGNDIQWCFSQVKGAVDDDVAEADIISTVEFNHSGELLATGDKGGRVVIFQQEQENKIQSHSRGEYNVYSTFQSHEPEFDYLKSLEIEEKINKIRWLPQKNAAQFLLSTNDKTIKLWKISERDKRPEGYNLKEEDGRYRDPTTVTTLRVPVFRPMDLMVEASPRRIFANAHTYHINSISINSDYETYLSADDLRINLWHLEITDRSFNIVDIKPANMEELTEVITAAEFHPNSCNTFVYSSSKGTIRLCDMRASALCDRHSKLFEEPEDPSNRSFFSEIISSISDVKFSHSGRYMMTRDYLSVKIWDLNMENRPVETYQVHEYLRSKLCSLYENDCIFDAFECCWNGSDSVVMTGSYNNFFRMFDRNTKRDITLEASRENNKPRTVLKPRKVCASGKRKKDEISVDSLDFNKKILHTAWHPKENIIAVATTNNLYIFQDKVN [chain 1 K345A], the ratio to parent was around 0.65.

chain 1 MAGAGGGNDIQWCFSQVKGAVDDDVAEADIISTVEFNHSGELLATGDKGGRVVIFQQEQENKIQSHSRGEYNVYSTFQSHEPEFDYLKSLEIEEKINKIRWLPQKNAAQFLLSTNDKTIKLWKISERDKRPEGYNLKEEDGRYRDPTTVTTLRVPVFRPMDLMVEASPRRIFANAHTYHINSISINSDYETYLSADKLRINLWHLEITDRSFNIVDIKPANMEELTEVITAAEFHPNSCNTFVYSSSKGTIRLCDMRASALCDRHSKLFEEPEDPSNRSFFSEIISSISDVKFSHSGRYMMTRDYLSVKIWDLNMENRPVETYQVHEYLRSKLCSLYENDCIFDKFECCWNGSDSVVMTGSYNNFFRMFDRNTKRDITLEASRENNKPRTVLKPRKVCASGKRKKDEISVDSLDFNKKILHTAWHPKENIIAVATTNNLYIFQDKVN [chain 1 D197K]: the ratio to parent is around -0.2.

chain 1 MAGAGGGNDIQWCFSQVKGAVDDDVAEADIISTVEFNHSGELLATGDKGGRVVIFQQEQENKIQSHSRGEYNVYSTFQSHEPEFDYLKSLEIEEKINKIRWLPQKNAAQFLLSTNDKTIKLWKISERDKRPEGYNLKEEDGRYRDPTTVTTLRVPVFRPMDLMVEASPRRIFANAHTYHINSISINSDYETYLSADDLRINLWHLEITDRSFNIVDIKPANMEELTEVITAAEFHPNSCNTFVYSSSKGTIRLCDMRASALCDRHSKLFEEPEDPSNRSFFSEIISSISDVKFSHSGRYMMTRDYLSVKIWDLNMENRPVETYQVHEYLRSKLCSLYENDCIFDKFACCWNGSDSVVMTGSYNNFFRMFDRNTKRDITLEASRENNKPRTVLKPRKVCASGKRKKDEISVDSLDFNKKILHTAWHPKENIIAVATTNNLYIFQDKVN [chain 1 E347A]: the ratio to parent is around 0.55.
